Test results from paper PMC10356863, “Architecture of the human G-protein-methylmalonyl-CoA mutase nanoassembly for B12 delivery and repair” (Nature Communications, 2023).
Changes are numbered by the printed parent chain.

How the values were obtained:
Test in all cases: cell-based or functional assay
[1] = target: T1, human MMUT R616C (patient variant) (human, UniProt P22033 33-750, R616C)
T1 sequence: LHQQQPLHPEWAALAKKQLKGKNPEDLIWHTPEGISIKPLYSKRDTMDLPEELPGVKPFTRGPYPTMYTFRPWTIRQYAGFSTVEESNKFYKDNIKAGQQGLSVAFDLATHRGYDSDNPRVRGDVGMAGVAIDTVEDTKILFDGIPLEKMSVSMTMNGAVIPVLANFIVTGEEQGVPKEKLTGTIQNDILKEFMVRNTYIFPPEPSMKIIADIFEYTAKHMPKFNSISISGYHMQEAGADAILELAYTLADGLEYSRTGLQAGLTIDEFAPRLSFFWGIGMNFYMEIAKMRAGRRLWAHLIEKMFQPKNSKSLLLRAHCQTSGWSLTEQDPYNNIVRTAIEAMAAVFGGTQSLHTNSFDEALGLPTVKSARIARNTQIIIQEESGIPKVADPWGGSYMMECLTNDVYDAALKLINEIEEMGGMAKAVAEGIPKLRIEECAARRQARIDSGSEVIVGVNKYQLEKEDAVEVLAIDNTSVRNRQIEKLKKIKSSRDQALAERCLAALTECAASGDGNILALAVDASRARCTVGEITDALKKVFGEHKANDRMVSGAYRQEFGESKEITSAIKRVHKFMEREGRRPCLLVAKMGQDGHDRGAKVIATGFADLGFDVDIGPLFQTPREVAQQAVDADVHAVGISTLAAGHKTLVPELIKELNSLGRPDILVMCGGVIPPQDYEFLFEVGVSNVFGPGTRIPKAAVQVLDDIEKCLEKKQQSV

[2] = target: T2, human MMUT R228Q (patient variant) (human, UniProt P22033 33-750, R228Q)
T2 sequence: T1 sequence with R196Q, C584R

[3] = target: T3, human MMUT R694W (patient variant) (human, UniProt P22033 33-750, R694W)
T3 sequence: T1 sequence with C584R, R662W

B1: human MMAA (G-protein chaperone of MMUT), wild type (enzyme)
chain: KDHTEGLSDKEQRFVDKLYTGLIQGQRACLAEAITLVESTHSRKKELAQVLLQKVLLYHREQEQSNKGKPLAFRVGLSGPPGAGKSTFIEYFGKMLTERGHKLSVLAVDPSSCTSGGSLLGDKTRMTELSRDMNAYIRPSPTRGTLGGVTRTTNEAILLCEGAGYDIILIETVGVGQSEFAVADMVDMFVLLLPPAGGDELQGIKRGIIEMADLVAVTKSDGDLIVPARRIQAEYVSALKLLRKRSQVWKPKVIRISARSGEGISEMWDKMKDFQDLMLASGELTAKRRKQQKVWMWNLIQESVLEHFRTHPTVREQIPLLEQKVLIGALSPGLAADFLLKAFKSRD
[1]
  GAP activation: GTPase activity of MMAA in the presence of MMUT, fold attenuation against wild-type MMUT: 7 fold
[2]
  GAP activation: GTPase activity of MMAA in the presence of MMUT, fold attenuation against wild-type MMUT: 12 fold
[3]
  GAP activation: GTPase activity of MMAA in the presence of MMUT, fold attenuation against wild-type MMUT: 12 fold
